# Results as given in patent publication US20060140858A1, “Drug pre-targeting by means of bi-specific antibodies and hapten constructs comprising a carrier peptide and the active agent(s)” (Immunomedics, Inc., priority 2002, published 2006).
# Where a SMILES comes first, the peptide text is derived from it. The star is where a group is joined. DTPA = O=C(O)CN(CCN(CC(=O)O)CC(=O)O)CCN(CC(=O)O)CC(=O)*
# Legend:
# [1] = Control group: clearance of 111-In-indium-IMP-156 alone; format: in vivo, nude mice; conditions: female, NCRNU nude, mouse, total radioactivity
# GW-39 tumor xenografts [2] = test: as above; format: in vivo, nude mice; conditions: 3 h
# [3] = Pretargeting: 125-I-hMN-14 × 734 bsAb, 48 h later 111-In-indium-IMP-156, biodistribution; format: in vivo, nude mice; conditions: female, nude (Taconic NCRNU), mouse, 3 h post peptide
# GW-39 tumor xenografts [4] = test: as above; format: in vivo, nude mice; conditions: 3 h post peptide
# [5] = Pretargeting: I-125 F6 × 734-F(ab′)2, 72 h later In-111-IMP-225, biodistribution; conditions: female, mouse, in vivo, 10 uCi, total radioactivity, % ID/g tissue
compound,measurement,setting,value
"CC(=O)N[C@@H](Cc1ccccc1)C(=O)N[C@@H](CCCCNC(=O)CN(CCN(CCN(CC(=O)O)CC(=O)O)CC(=O)O)CC(=O)O)C(=O)N[C@@H](Cc1ccc(O)cc1)C(=O)N[C@@H](CCCCNC(=O)CN(CCN(CCN(CC(=O)O)CC(=O)O)CC(=O)O)CC(=O)O)C(N)=O [IMP 156, Ac-Phe-Lys(DTPA)-Tyr-Lys(DTPA)-NH2] (Ac-FK(DTPA)YK(DTPA)-NH2)",tissue uptake at 3 h,[1]; Blood,0.05 ± 0.01 %ID/g
same,tissue uptake at 3 h,[1]; Kidney,0.93 ± 0.13 %ID/g
same,tissue uptake at 3 h,[1]; Liver,0.42 ± 0.1 %ID/g
same,tissue uptake at 3 h,[1]; Lungs,0.04 ± 0.01 %ID/g
same,tissue uptake at 3 h,[1]; Spleen,0.28 ± 0.09 %ID/g
same,tissue uptake at 3 h,[1]; Tumor,0.14 ± 0.02 %ID/g
same,T/NT,GW-39 tumor xenografts [2]; Blood,3.1 ± 0.7
same,T/NT,GW-39 tumor xenografts [2]; Kidney,0.2 ± 0.03
same,T/NT,GW-39 tumor xenografts [2]; Liver,0.3 ± 0.1
same,T/NT,GW-39 tumor xenografts [2]; Lungs,3.5 ± 0.7
same,T/NT,GW-39 tumor xenografts [2]; Spleen,0.5 ± 0.1
same,T/NT,GW-39 tumor xenografts [2]; Tumor,1
same,tissue uptake at 3 h,[3]; Blood,0.7 ± 0.2 %ID/g
same,tissue uptake at 3 h,[3]; Kidney,1.9 ± 0.5 %ID/g
same,tissue uptake at 3 h,[3]; Lungs,0.4 ± 0.1 %ID/g
same,tissue uptake at 3 h,[3]; tumor,52 ± 1.9 %ID/g
same,T/NT,GW-39 tumor xenografts [4]; Blood,7.6 ± 1.5
same,T/NT,GW-39 tumor xenografts [4]; Kidney,2.6 ± 0.5
same,T/NT,GW-39 tumor xenografts [4]; Liver,10.6 ± 3.5
same,T/NT,GW-39 tumor xenografts [4]; Lungs,12 ± 2
same,T/NT,GW-39 tumor xenografts [4]; Spleen,12 ± 6
same,T/NT,GW-39 tumor xenografts [4]; tumor,1
COc1cccc2c1C(=O)c1c(O)c3c(c(O)c1C2=O)C[C@@](O)(C(=O)CO)C[C@@H]3O[C@H]1C[C@H](NC(=O)CSC[C@H](NC(C)=O)C(=O)N[C@@H](CCCCNC(=O)CN(CCN(CCN(CC(=O)O)CC(=O)O)CC(=O)O)CC(=O)O)C(=O)N[C@@H](Cc2ccc(O)cc2)C(=O)N[C@@H](CCCCNC(=O)CN(CCN(CCN(CC(=O)O)CC(=O)O)CC(=O)O)CC(=O)O)C(N)=O)[C@H](O)[C@H](C)O1 [IMP 225],tissue uptake at 1 h,"[5]; NCRNU nude, Spleen, 1 h",1.6 ± 2.4 %ID/g
same,tissue uptake at 1 h,"[5]; nude (Taconic NCRNU), Blood, 1 h",2 ± 0.4 %ID/g
same,tissue uptake at 4 h,"[5]; nude (Taconic NCRNU), Blood, 4 h",1.3 ± 0.2 %ID/g
same,tissue uptake at 24 h,"[5]; nude (Taconic NCRNU), Blood, 24 h",0.4 ± 0.2 %ID/g
same,tissue uptake at 1 h,"[5]; nude (Taconic NCRNU), GW-39, 1 h",14.6 ± 14 %ID/g
same,tissue uptake at 4 h,"[5]; nude (Taconic NCRNU), GW-39, 4 h",16.5 ± 4.8 %ID/g
same,tissue uptake at 24 h,"[5]; nude (Taconic NCRNU), GW-39, 24 h",10.1 ± 2.3 %ID/g
same,tissue uptake at 1 h,"[5]; nude (Taconic NCRNU), Kidney, 1 h",3.8 ± 0.9 %ID/g
same,tissue uptake at 4 h,"[5]; nude (Taconic NCRNU), Kidney, 4 h",3.8 ± 0.4 %ID/g
same,tissue uptake at 24 h,"[5]; nude (Taconic NCRNU), Kidney, 24 h",1.7 ± 0.3 %ID/g
same,tissue uptake at 1 h,"[5]; nude (Taconic NCRNU), Large Int., 1 h",0.2 %ID/g
same,tissue uptake at 4 h,"[5]; nude (Taconic NCRNU), Large Int., 4 h",0.3 ± 0.1 %ID/g
same,tissue uptake at 24 h,"[5]; nude (Taconic NCRNU), Large Int., 24 h",0.1 %ID/g
same,tissue uptake at 1 h,"[5]; nude (Taconic NCRNU), Liver, 1 h",0.4 ± 0.2 %ID/g
same,tissue uptake at 4 h,"[5]; nude (Taconic NCRNU), Liver, 4 h",0.4 ± 0.1 %ID/g
same,tissue uptake at 24 h,"[5]; nude (Taconic NCRNU), Liver, 24 h",0.3 ± 0.1 %ID/g
same,tissue uptake at 1 h,"[5]; nude (Taconic NCRNU), Lungs, 1 h",0.8 ± 0.4 %ID/g
same,tissue uptake at 4 h,"[5]; nude (Taconic NCRNU), Lungs, 4 h",0.6 ± 0.1 %ID/g
same,tissue uptake at 24 h,"[5]; nude (Taconic NCRNU), Lungs, 24 h",0.2 ± 0.1 %ID/g
same,tissue uptake at 1 h,"[5]; nude (Taconic NCRNU), Muscle, 1 h",0.3 ± 0.2 %ID/g
same,tissue uptake at 4 h,"[5]; nude (Taconic NCRNU), Muscle, 4 h",0.2 %ID/g
same,tissue uptake at 24 h,"[5]; nude (Taconic NCRNU), Muscle, 24 h",0.1 %ID/g
same,tissue uptake at 1 h,"[5]; nude (Taconic NCRNU), Small Int., 1 h",0.4 ± 0.1 %ID/g
same,tissue uptake at 4 h,"[5]; nude (Taconic NCRNU), Small Int., 4 h",0.3 ± 0.2 %ID/g
same,tissue uptake at 24 h,"[5]; nude (Taconic NCRNU), Small Int., 24 h",0.1 %ID/g
same,tissue uptake at 4 h,"[5]; nude (Taconic NCRNU), Spleen, 4 h",0.4 ± 0.1 %ID/g
same,tissue uptake at 24 h,"[5]; nude (Taconic NCRNU), Spleen, 24 h",0.4 ± 0.1 %ID/g
same,tissue uptake at 1 h,"[5]; nude (Taconic NCRNU), Stomach, 1 h",1.1 ± 0.9 %ID/g
same,tissue uptake at 4 h,"[5]; nude (Taconic NCRNU), Stomach, 4 h",0.4 ± 0.2 %ID/g
same,tissue uptake at 24 h,"[5]; nude (Taconic NCRNU), Stomach, 24 h",0.1 %ID/g
same,tissue uptake at 1 h,"[5]; nude (Taconic NCRNU), Tail, 1 h",1.2 ± 0.1 %ID/g
same,tissue uptake at 4 h,"[5]; nude (Taconic NCRNU), Tail, 4 h",0.8 ± 0.2 %ID/g
same,tissue uptake at 24 h,"[5]; nude (Taconic NCRNU), Tail, 24 h",0.5 ± 0.7 %ID/g
